Patent US20240327522A1 (Genentech, published 2024)

Legend:
human αvβ3 = molecular target: T1, human αvβ3 (human, UniProt P06756 31-992; P05106 27-718); assay: SPR binding assay, sample hu.aVb1,3,5,6
T1 construct: Counter-screen integrin; construct not described; also called hu.aVb3; αV03

human αvβ5 = molecular target: T2, human αvβ5 (human, UniProt P06756 31-992; P18084 24-719); assay: SPR binding assay, sample hu.aVb1,3,5,6
T2 construct: Counter-screen integrin; construct not described; also called hu.aVb5; αV05
T2 sequence (P18084 24-719 limits assumed, one chain of several): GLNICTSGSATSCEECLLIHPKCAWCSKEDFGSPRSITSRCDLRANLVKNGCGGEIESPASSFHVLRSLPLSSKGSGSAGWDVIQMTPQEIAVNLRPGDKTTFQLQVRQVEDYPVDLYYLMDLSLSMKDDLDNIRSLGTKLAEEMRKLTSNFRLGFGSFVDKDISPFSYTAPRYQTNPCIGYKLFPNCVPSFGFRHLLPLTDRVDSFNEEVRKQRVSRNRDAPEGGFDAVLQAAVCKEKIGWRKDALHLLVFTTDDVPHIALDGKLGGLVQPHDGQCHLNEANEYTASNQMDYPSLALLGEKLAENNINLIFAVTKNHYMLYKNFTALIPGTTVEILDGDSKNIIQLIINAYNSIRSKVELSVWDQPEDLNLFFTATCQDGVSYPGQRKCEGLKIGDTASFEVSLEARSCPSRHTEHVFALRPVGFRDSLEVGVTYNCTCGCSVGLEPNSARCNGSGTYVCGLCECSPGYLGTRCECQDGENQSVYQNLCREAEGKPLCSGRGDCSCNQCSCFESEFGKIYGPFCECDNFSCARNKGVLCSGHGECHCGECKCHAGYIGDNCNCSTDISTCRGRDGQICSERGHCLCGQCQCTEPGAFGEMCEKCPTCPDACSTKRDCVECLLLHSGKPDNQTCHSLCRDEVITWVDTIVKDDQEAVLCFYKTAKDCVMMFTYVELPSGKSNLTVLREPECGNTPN

human αvβ6 = molecular target: T3, human αvβ6 (human, UniProt P06756 31-992; P18564 22-709); assay: SPR binding assay, sample hu.aVb1,3,5,6
T3 construct: Counter-screen integrin; construct not described; also called hu.aVb6; αV06
T3 sequence (P18564 22-709 limits assumed, one chain of several): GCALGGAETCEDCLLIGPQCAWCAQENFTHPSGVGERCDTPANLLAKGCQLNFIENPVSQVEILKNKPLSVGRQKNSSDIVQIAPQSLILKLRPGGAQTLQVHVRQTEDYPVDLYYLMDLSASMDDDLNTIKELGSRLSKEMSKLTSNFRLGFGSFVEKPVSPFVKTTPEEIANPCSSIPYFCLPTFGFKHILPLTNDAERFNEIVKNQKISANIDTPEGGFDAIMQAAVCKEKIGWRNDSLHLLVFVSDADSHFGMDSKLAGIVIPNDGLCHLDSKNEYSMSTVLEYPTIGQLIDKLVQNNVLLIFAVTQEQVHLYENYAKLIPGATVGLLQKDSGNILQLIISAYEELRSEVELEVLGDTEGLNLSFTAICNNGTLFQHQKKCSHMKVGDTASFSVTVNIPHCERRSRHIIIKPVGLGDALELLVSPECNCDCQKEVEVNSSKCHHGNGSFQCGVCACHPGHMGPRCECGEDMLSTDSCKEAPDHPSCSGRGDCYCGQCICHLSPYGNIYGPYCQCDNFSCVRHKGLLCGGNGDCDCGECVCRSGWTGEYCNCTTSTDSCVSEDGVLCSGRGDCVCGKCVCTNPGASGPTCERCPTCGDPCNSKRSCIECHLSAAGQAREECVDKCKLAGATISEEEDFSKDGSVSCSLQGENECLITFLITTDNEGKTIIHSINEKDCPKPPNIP

human αvβ1 = molecular target: T4, human αvβ1 (human, UniProt P06756 31-992; P05556 21-728); assay: SPR binding assay, sample hu.aVb1,3,5,6
T4 construct: Counter-screen integrin; construct not described; also called hu.aVb1; αVP1
T4 sequence (P05556 21-728 limits assumed, one chain of several): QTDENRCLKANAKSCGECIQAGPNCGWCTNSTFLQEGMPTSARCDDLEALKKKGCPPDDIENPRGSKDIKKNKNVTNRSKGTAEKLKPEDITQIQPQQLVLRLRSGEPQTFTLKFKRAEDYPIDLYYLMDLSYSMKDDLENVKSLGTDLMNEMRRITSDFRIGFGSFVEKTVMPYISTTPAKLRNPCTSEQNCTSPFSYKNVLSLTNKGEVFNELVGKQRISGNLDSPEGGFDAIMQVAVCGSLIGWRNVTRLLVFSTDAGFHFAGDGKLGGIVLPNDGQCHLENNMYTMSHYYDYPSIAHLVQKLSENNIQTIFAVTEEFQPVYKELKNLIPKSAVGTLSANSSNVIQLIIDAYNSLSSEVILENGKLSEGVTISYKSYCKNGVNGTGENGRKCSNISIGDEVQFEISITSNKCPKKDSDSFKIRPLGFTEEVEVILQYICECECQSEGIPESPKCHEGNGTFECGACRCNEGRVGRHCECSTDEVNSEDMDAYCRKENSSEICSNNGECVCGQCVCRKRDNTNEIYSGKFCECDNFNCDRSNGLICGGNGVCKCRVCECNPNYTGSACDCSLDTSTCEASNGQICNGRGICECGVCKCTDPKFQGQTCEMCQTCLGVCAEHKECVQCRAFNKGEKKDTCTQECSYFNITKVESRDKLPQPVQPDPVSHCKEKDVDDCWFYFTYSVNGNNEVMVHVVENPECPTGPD

[1] = molecular target: T5, recombinant human αvβ8 protein (PARS-17102) (human); assay: SPR binding assay, experiment 1, antibody as ligand, aVb8 as sample
T5 construct: also called hu.aVb8.17102; not shown: C-terminal acid/basic coils and any purification tags
T5 alpha: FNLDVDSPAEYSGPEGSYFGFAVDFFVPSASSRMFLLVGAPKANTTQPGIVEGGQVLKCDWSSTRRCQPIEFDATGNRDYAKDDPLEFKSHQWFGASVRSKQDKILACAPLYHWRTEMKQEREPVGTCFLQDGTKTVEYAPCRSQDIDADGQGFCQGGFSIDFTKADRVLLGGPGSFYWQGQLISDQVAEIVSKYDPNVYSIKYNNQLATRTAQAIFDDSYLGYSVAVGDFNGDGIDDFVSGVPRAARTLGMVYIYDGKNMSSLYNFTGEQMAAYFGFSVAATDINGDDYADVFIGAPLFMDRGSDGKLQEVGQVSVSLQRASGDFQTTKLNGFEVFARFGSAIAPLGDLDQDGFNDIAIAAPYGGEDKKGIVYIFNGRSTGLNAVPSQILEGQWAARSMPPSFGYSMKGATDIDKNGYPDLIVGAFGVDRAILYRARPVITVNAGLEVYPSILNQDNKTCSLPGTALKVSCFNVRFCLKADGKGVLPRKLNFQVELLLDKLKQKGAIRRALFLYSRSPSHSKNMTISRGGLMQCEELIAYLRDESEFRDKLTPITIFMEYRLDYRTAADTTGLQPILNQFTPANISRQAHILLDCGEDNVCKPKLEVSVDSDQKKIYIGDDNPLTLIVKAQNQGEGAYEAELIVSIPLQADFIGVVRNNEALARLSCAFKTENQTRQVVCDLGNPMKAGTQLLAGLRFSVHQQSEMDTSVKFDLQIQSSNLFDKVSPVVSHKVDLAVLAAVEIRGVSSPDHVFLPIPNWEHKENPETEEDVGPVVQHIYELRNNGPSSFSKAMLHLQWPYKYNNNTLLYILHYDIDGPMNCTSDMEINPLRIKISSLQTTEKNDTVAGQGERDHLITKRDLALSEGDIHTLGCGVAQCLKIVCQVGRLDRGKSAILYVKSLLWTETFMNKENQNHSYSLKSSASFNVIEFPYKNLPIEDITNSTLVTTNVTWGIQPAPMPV
T5 beta: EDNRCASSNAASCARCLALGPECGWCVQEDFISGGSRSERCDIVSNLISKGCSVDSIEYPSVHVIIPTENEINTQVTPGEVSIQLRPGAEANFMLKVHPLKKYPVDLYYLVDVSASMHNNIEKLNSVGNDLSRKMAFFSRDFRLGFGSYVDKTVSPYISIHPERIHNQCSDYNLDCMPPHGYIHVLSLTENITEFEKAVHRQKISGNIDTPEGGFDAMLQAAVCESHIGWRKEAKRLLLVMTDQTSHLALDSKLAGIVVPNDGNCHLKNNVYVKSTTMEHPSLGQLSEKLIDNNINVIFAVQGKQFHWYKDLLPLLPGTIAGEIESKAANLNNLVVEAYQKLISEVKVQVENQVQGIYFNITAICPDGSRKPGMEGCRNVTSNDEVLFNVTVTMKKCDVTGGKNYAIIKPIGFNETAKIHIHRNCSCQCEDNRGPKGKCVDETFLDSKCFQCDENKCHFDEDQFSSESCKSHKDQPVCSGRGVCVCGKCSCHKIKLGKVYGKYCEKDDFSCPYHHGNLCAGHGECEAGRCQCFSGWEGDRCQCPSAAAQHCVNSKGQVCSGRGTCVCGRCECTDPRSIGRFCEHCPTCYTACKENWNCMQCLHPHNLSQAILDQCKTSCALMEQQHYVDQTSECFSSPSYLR

[2] = molecular target: T6, recombinant cynomolgus monkey αvβ8 protein (PARS-19393) (cynomolgus monkey, UniProt A0A2K5WCD3 31-992; G7P0S0 43-684); assay: as above
T6 construct: also called cyno.aVb8-19393; cyno.aVb8

[3] = molecular target: T7, recombinant mouse αvβ8 protein (PARS-17103) (murine, UniProt P43406 31-988; Q0VBD0 43-681, limits assumed); assay: as above
T7 construct: Made in house; also called mu.aVb8.17103
T7 sequence (P43406 31-988 limits assumed, chain 1 of 2): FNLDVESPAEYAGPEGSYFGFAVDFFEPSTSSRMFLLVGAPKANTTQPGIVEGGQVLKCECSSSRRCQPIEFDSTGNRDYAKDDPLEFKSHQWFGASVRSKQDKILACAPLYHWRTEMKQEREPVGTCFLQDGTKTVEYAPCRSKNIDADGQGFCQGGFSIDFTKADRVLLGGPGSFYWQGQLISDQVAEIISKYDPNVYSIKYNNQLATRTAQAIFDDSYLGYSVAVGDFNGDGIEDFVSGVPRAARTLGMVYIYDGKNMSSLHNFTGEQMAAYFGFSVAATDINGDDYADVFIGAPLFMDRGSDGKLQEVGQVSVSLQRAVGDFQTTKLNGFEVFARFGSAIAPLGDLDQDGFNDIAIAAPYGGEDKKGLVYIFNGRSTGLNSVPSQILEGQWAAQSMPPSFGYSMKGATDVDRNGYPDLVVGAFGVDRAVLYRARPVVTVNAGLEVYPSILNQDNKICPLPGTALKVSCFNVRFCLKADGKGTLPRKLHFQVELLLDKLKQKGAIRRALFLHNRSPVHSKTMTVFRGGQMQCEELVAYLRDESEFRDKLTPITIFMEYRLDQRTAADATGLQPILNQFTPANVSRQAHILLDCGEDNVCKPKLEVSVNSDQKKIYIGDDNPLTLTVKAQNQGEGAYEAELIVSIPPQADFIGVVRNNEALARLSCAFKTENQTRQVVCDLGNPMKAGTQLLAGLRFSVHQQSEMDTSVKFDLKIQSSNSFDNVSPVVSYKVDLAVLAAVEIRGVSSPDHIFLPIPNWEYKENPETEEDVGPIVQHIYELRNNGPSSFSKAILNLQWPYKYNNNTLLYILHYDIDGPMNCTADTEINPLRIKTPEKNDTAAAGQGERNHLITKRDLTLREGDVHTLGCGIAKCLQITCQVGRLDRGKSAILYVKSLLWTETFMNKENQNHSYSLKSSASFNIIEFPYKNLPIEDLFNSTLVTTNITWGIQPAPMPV
T7 sequence (Q0VBD0 43-681 limits assumed, chain 2 of 2): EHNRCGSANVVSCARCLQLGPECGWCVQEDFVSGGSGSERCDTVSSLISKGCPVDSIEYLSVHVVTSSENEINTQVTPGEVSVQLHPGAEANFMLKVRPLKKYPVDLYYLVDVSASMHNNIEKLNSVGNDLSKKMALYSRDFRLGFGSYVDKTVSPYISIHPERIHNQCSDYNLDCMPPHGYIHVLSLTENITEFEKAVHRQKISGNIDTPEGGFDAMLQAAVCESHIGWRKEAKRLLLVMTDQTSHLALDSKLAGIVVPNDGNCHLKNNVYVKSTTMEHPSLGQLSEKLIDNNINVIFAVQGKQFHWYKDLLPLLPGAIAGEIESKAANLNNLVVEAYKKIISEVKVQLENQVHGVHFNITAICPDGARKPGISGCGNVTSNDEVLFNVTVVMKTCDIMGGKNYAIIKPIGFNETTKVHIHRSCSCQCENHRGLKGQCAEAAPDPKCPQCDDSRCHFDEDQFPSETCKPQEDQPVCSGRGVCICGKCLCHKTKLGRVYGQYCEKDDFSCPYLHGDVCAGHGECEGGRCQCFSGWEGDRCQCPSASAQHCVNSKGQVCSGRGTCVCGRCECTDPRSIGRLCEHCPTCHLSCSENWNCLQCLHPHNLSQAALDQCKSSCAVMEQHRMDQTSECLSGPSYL

cyno.aVb8.13650 = molecular target: T8, cyno.aVb8.13650 (cynomolgus, UniProt A0A2K5WCD3 31-992; G7P0S0 43-684); assay: SPR binding assay, experiment 2, antibody as ligand, aVb8 as sample
T8 construct: Carries another lot/construct number than cyno.aVb8-19393; kept apart; also called cynomolgus αvβ8

[4] = molecular target: T5, recombinant human αvβ8 protein …; assay: as above
[5] = molecular target: T7, recombinant mouse αvβ8 protein …; assay: as above

T1 sequence (P05106 27-718 limits assumed, one chain of several): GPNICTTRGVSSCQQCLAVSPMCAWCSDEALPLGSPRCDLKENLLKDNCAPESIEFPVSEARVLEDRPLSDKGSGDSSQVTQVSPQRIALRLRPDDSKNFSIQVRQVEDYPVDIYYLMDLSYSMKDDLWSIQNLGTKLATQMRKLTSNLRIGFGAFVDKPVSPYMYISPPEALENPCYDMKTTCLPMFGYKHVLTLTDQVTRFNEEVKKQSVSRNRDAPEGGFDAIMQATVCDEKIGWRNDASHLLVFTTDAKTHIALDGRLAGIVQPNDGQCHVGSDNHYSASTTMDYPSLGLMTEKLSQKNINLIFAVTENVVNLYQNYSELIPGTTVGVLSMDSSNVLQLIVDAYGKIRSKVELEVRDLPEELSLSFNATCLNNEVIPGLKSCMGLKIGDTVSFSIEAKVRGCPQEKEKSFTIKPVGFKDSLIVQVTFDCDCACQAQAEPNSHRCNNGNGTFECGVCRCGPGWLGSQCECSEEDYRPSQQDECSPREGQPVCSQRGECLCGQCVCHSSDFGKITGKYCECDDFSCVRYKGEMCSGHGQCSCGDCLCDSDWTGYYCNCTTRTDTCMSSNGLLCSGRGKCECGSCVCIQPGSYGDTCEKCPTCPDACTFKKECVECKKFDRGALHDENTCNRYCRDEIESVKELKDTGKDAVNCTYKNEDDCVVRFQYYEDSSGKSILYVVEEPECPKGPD

B1: Hu.aVb8-92.H13L1 (aVb8-92.H13L1.hIgG1.LALAPG) (antibody, V domains shown)
VH: EQQLLESGGGLVQPGGSLRLSCAASGFSLSSYAMGWVRQAPGKGLEWIGVIRKDDNTYYGNWAKGRFTISRDSSKNTLYLQMNSLRAEDTAVYFCARALNTYVGFPYFNIWGPGTLVTVSS
VL: DAVLTQSPDSLAVSLGERATINCQSIKSVGDNKWLAWYQQKPGQPPKLLIYDASDLASGVPDRFSGSGSRTDFTLTISSLQAEDVAVYYCAGSVSSGDSGFGGGTKVEIKR
notes: Human IgG1 LALAPG; also called PARS-20463-65 (IH) aVb8-92.H13L1.hIgG1.LALAPG; humanized αvβ8-92
Human αvβ3
  binding result: no binding
Human αvβ5
  binding result: no binding
Human αvβ6
  binding result: no binding
Human αvβ1
  binding result: no binding
[1]
  Kd: 10.1 nM
  koff: 0.000283 s⁻¹
  kon: 28000 M⁻¹ s⁻¹
[2]
  Kd: 11.1 nM
  koff: 0.000284 s⁻¹
  kon: 25500 M⁻¹ s⁻¹
[3]
  Kd: 9.91 nM
  koff: 0.000311 s⁻¹
  kon: 31400 M⁻¹ s⁻¹
cyno.aVb8.13650
  Kd: 12.9 nM
  koff: 0.000443 s⁻¹
  kon: 34500 M⁻¹ s⁻¹
[4]
  Kd: 2.95 nM
  koff: 0.000195 s⁻¹
  kon: 66100 M⁻¹ s⁻¹
[5]
  Kd: 3.42 nM
  koff: 0.000236 s⁻¹
  kon: 69100 M⁻¹ s⁻¹
